Patent publication US20170119913A1 (3B PHARMACEUTICALS, published 2017)

Target: T1, CCR1 (h), C-C chemokine receptor type 1 (human (printed as (h)), UniProt P32246 1-355)
T1 sequence (looked up): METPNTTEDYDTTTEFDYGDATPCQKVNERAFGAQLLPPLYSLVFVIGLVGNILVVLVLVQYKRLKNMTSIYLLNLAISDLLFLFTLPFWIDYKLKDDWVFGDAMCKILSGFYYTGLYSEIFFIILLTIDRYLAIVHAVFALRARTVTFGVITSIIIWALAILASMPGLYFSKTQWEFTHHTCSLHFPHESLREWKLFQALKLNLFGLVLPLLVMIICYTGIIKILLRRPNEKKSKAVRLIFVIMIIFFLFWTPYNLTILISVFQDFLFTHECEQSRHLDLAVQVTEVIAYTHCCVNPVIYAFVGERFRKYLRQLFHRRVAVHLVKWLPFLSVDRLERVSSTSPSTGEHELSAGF
Test: Cerep ExpresSProfile radioligand competition binding, reference compound (agonist radioligand)

Ki: 41 pM
B1: MIP-1alpha (ligand, UniProt P10147 24-92, looked up)
chain: SLAADTPTACCFSYTSRQIPQNFIADYFETSSQCSKPGVIFLTKRSRQVCADPSEEWVQKYVSDLELSA
